In the supplement of paper PMC7877785:
± gives the uncertainty stated by the source.

Test: self-splicing fitness, log relative to wild type (ln ratio); higher = more splicing; Tetrahymena group I intron in knt gene, E. coli kanamycin selection, DiMSum; sequences stand for … in CUCUCU…GGAGGGAAAAGUUAUCAGGCAUGCACCUGGUAGCUAGUCUUUAAACCAAUAGAUUGCAUCGGUUUAAAAGGCAAGACCGUCAAAUUGCGGGAAAGGGGUCAACAGCCGUUCAGUACCAAGUCUCAGGGGAAACUUUGAGAUGGCCUUGCAAAGGGUAUGGUAAUAAGCUGACGGACAUGGUCCUAACCACGCAGCCAAGUCCUAAGUCAACAGAUCUUCUGUUGAUAUGGAUGCAGUUCACAGACUAAAUGUCGGUCGGGGAAGAUGUAUUCUUCUCAUAAGAUAUAGUCGGACCUCUCCUUAAUGGGAGCUAGCGGAUGAAGUGAUGCAACACUGGAGCCGCUGGGAACUAAUUUGUAUGCGAAAGUAUAUUGAUUAGUUUUGGAGUACUCGUGGUCG
Outline: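 Fitness was computed with DiMSum as the error-weighted combination of replicate fold changes, kanamycin versus none, each normalised to wild type. The library randomised all eight intron nucleotides of the P1ex region, with the intron placed in the knt kanamycin-resistance gene on pET-22b(+) in E. coli BL21(DE3). Six replicate transformations were grown overnight at 37°C or 30°C on LB agar with or without 25 μg/mL kanamycin, plus 100 μg/mL carbenicillin, 50 μM IPTG and 0.2% rhamnose. Pooled colonies were amplicon-sequenced on an Illumina HiSeq 2500.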

Sequence | self-splicing fitness (ln) (30 °C) | self-splicing fitness (ln) (37 °C)
GUGGAGCAAUAUUACGCAUG | -3.81 ± 0.21 | -1.8 ± 0.15
GUGGAGCAAUAUUACGCCGU | 0.631 ± 0.42 | -1.15 ± 0.37
GUGGAGCAAUAUUACGCGCG | -1.79 ± 0.25 | -2.11 ± 0.31
GUGGAGCAAUAUUACGCUCC | -1.83 ± 0.35 | –
GUGGAGCAAUAUUACGGAUC | -1.1 ± 0.25 | -0.583 ± 0.21
GUGGAGCAAUAUUACGGCCG | -3.44 ± 0.28 | -2.03 ± 0.22
GUGGAGCAAUAUUACGGCGU | -1.29 ± 0.26 | -0.557 ± 0.48
GUGGAGCAAUAUUACGGGAG | -3.74 ± 0.37 | -1.8 ± 0.3
GUGGAGCAAUAUUACGGGCC | – | -0.665 ± 0.48
GUGGAGCAAUAUUACGGUCG | -4.21 ± 0.43 | -1.5 ± 0.45
GUGGAGCAAUAUUACGGUGC | -2.76 ± 0.24 | -1.93 ± 0.25
GUGGAGCAAUAUUACGUCAU | -4.2 ± 0.32 | -3.24 ± 0.33
GUGGAGCAAUAUUACGUCGU | -1.65 ± 0.21 | -1.48 ± 0.26
GUGGAGCAAUAUUACGUGAA | – | -0.49 ± 0.28
GUGGAGCAAUAUUACGUUCG | -1.45 ± 0.2 | -0.499 ± 0.25
GUGGAGCAAUAUUACGUUGG | -3.39 ± 0.28 | -3.36 ± 0.43
GUGUAGCAAUAUUACGAAAA | -2.71 ± 0.4 | -1.51 ± 0.29
GUGUAGCAAUAUUACGACGG | -3.88 ± 0.31 | -0.904 ± 0.15
GUGUAGCAAUAUUACGACUC | -0.267 ± 0.15 | -0.0849 ± 0.21
GUGUAGCAAUAUUACGAUAG | -3.84 ± 0.27 | -0.946 ± 0.19
GUGUAGCAAUAUUACGAUUG | -4.18 ± 0.3 | -2.18 ± 0.2
GUGUAGCAAUAUUACGCAAC | – | -0.636 ± 0.23
